# From patent US20060223096A1 (GLYCART BIOTECHNOLOGY, published 2006)
# B1: ch-225.28S antibody (murine 225.28S VH and VL with human constant regions) (antibody, V domains shown)
# VH: QVKLQQSGGGLVQPGGSMKLSCVVSGFTFSNYWMNWVRQSPEKGLEWIAEIRLKSNNFGRYYAESVKGRFTISRDDSKSSAYLQMINLRAEDTGIYYCTSYGNYVGHYFDHWGQGTTVTVSS
# VL: DIELTQSPKFMSTSVGDRVSVTCKASQNVDTNVAWYQQKPGQSPEPLLFSASYRYTGVPDRFTGSGSGTDFTLTISNVQSEDLAEYFCQQYNSYPLTFGGGTKLEIK
# notes: also called mVH/mVL
# Target: T1, human melanoma chondroitin sulfate proteoglycan (MCSP) (human, UniProt Q6UVK1 30-2322)
# T1 construct: whole, on cells; also called HMW-MAA; high molecular weight-melanoma-associated antigen
# T1 sequence (Q6UVK1 30-2322): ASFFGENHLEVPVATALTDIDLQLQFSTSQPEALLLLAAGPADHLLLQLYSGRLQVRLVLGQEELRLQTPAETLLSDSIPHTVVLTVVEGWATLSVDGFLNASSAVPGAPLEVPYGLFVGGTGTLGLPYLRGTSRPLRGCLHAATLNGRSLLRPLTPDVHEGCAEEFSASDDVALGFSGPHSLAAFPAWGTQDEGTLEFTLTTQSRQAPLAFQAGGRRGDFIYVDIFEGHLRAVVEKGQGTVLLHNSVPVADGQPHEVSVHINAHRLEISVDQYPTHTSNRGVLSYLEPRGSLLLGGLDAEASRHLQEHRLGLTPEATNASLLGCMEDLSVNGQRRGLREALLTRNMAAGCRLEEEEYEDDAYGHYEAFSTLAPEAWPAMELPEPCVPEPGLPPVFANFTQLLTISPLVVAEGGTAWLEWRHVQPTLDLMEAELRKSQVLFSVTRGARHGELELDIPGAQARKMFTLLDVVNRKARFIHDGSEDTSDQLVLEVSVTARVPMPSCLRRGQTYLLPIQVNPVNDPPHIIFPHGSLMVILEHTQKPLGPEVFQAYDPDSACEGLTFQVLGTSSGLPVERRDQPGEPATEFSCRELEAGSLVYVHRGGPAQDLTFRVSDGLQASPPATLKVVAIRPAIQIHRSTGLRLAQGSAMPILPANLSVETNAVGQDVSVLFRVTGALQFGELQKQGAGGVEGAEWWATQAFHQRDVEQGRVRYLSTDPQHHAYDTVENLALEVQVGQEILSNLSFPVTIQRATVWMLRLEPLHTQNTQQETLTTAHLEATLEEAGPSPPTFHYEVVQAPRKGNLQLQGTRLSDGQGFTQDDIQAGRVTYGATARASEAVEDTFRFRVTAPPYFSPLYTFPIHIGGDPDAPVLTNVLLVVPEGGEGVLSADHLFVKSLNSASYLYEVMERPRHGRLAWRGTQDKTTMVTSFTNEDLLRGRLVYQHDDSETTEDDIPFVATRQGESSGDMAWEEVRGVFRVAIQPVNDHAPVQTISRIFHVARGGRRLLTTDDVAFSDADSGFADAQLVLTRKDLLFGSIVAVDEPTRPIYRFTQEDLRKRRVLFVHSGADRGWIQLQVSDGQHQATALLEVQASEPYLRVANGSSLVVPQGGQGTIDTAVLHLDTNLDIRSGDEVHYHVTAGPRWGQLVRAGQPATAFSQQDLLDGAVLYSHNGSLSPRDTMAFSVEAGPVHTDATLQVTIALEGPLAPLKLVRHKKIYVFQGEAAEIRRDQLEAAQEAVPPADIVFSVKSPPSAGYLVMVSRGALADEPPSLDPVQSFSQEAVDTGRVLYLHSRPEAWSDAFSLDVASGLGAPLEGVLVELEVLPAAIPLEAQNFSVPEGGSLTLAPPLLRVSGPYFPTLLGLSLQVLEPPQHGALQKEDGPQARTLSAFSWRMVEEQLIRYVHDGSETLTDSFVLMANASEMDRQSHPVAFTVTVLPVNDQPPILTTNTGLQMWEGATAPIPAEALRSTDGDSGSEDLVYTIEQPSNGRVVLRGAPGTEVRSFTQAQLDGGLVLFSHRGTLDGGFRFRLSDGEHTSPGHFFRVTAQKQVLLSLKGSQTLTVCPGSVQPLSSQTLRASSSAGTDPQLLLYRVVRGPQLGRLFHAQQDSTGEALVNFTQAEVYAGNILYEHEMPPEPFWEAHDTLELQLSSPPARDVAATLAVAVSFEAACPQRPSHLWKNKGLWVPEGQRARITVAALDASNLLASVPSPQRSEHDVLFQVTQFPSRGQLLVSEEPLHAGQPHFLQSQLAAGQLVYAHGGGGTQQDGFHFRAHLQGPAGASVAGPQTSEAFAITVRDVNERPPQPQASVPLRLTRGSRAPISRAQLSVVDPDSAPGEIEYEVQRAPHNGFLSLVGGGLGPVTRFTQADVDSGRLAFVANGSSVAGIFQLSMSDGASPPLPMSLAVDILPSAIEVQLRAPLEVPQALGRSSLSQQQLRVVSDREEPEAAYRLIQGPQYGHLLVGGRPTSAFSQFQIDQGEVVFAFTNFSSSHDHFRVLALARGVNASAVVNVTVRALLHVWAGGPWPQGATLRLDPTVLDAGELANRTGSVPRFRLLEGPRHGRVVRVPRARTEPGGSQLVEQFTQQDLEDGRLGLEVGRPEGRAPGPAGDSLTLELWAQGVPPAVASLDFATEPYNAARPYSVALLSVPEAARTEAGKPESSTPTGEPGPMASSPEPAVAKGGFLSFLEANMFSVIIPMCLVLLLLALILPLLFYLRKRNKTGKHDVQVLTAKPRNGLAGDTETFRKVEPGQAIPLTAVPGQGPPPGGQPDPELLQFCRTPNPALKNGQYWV
# Experiment: flow cytometry on A375 human melanoma cells; reference antibody of the comparison
# Procedure: The purified, monomeric humanized antibody variants were tested for binding to the human HMW-MAA/MCSP antigen on the A375 human melanoma cell line, using a flow cytometry-based assay. 200,000 cells (in 180 μl FACS buffer (PBS containing 2% FCS and 5 mM EDTA) were transferred to 5 ml polystyrene tubes and 20 μl 10 fold concentrated anti-MCSP antibody (primary antibody) samples (1-5000 ng/ml final concentration) or PBS only were added. After gently mixing the samples, the tubes were incubated at 4° C. for 30 min in the dark. Subsequently, samples were washed twice with FACS buffer and pelleted at 300 g for 3 min. Supernatant was aspirated off and cells were taken up in 50 μl FACS buffer and 2 μl secondary antibody (anti-Fc-specific F(ab′)2-FITC fragments (Jackson Immuno Research Laboratories, USA)) was added and the tubes were incubated at 4° C. for 30 min. Samples were washed twice with FACS buffer and taken up in 500 μl of FACS buffer for analysis by Flow Cytometry. Binding was determined by plotting the geometric mean fluorescence against the antibody concentrations.
binder,measurement,value
B1,binding result,binds
